Data taken from patent US20130142788A1 (published 2013).
Where a chain is given by its changes, count along the chain named. Names may count otherwise.

T1: recombinant mature dimeric myostatin (human and mouse (mature sequences 100% …, UniProt O08689 268-376))
T1 construct: also called GDF-8; mature myostatin
T1 sequence: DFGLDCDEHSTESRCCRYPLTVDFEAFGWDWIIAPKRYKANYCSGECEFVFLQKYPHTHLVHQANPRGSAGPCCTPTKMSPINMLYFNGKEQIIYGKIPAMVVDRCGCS

B1: H2L2-C91S_F100G_Y (antibody, IgG1)
heavy: not shown
light: DIQMTQSPSSLSASVGDRVTITCKASQDINSYLSWFQQKPGKAPKSLIYRANRLVDGVPSKFSGSGSGTDYTLTISSLQPEDFATYYCLQSDEFPLTFGQGTKLEIKRTVAAPSVFIFPPSDEQLKSGTASVVCLLNNFYPREAKVQWKVDNALQSGNSQESVTEQDSKDSTYSLSSTLTLSKADYEKHKVYACEVTHQGLSSPVTKSFNRGEC
notes: wild type IgG1 Fc
B2: H2L2-C91S_P100B_I (antibody, V domains shown)
VH: QVQLVQSGAEVKKPGASVKVSCKASGYSFTGYFMHWVRQAPGQGLEWMGNIYPYNGVSNYNQRFKARVTMTTDTSTSTAYMELRSLRSDDTAVYYCARRYYYGTGIADWYFDVWGQGTLVTVSS
VL: DIQMTQSPSSLSASVGDRVTITCKASQDINSYLSWFQQKPGKAPKSLIYRANRLVDGVPSKFSGSGSGTDYTLTISSLQPEDFATYYCLQSDEFPLTFGQGTKLEIKR
B3: H2L2-C91S_V102S (antibody, V domains shown)
VH: B2 VH with I106P, V113S
VL: B2 VL
B4: H2L2-C91S_P100B_F (antibody, V domains shown)
VH: B2 VH with I106F
VL: B2 VL
B5: H2L2-C91S_V102N (antibody, V domains shown)
VH: B2 VH with I106P, V113N
VL: B2 VL
B6: H9L5 (antibody, IgG1, V domains shown)
VH: B2 VH with V20I, M48I, G56S, R67K, V68A, M70L, T72V, T74K, I106P, F111Y
VL: B2 VL with S46T
notes: Humanised IgG1/kappa
B7: H2L2 C91S_G55S F100G_Y (antibody)
heavy: not shown
light: B1 light
notes: Fc not disabled
B8: H2L2-C91S_G99D (antibody, V domains shown)
VH: B2 VH with G103D, I106P
VL: B2 VL
B9: H2L2 C91S_G55S_F100G_Y-Fc disabled (antibody)
heavy: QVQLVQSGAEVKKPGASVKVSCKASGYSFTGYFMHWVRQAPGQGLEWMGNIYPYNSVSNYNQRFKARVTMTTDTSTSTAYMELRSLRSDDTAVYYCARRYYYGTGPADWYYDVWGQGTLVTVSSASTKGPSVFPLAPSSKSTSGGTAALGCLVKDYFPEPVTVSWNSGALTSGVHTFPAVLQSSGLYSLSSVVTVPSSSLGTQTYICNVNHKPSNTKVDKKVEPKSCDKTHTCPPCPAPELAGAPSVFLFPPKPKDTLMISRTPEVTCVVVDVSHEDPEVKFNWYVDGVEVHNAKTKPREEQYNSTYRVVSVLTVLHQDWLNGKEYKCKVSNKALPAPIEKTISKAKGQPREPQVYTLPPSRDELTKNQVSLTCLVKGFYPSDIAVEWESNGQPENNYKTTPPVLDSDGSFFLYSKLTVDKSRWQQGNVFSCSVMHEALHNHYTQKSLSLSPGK
light: B1 light
notes: Fc disabled (L235A, G237A, EU); Light chain L2-C91S by the name; not restated for the disabled form
B10: H2L2-C91S_Y96L (antibody, V domains shown)
VH: B2 VH with Y100L, I106P
VL: B2 VL
B11: H2L2-C91S_W100E_F (antibody, V domains shown)
VH: B2 VH with I106P, W109F
VL: B2 VL
B12: H2L2-C91S_G100A_K (antibody, V domains shown)
VH: B2 VH with G105K, I106P
VL: B2 VL
B13: HoLo (antibody, V domains shown)
VH: B2 VH with S28T, I106P
VL: B2 VL with Y71F, S91C
notes: also called H0L0; copies: 2 + 2
B14: H2L2-C91S_F100G_N (antibody, V domains shown)
VH: B2 VH with I106P, F111N
VL: B2 VL
B15: H2L2-C91S_G99S (antibody, V domains shown)
VH: B2 VH with G103S, I106P
VL: B2 VL

Biological target: T1, recombinant mature dimeric myostatin
Assay: myostatin competition ELISA, direct capture of myostatin, competitor 10B3
Protocol: (§1) A 96-well ELISA plate was coated at 4° C. overnight with 2.5 μg/ml polyclonal Antibody to Myostatin (R&D Systems AF788). This plate was then washed 3-times in wash buffer (PBS, 0.1% Tween-20) and blocked for 1 hour at room temperature with block solution (PBS, 0.1% Tween-20+1% bovine serum albumin [BSA]). Then, myostatin was added at 1 μg/ml in block buffer during 1 hour followed by 3-times in wash buffer. Antibodies were then titrated out to a suitable concentration range (approximately 10 to 0.01 μg/ml), added to the plate and incubated for 1 hour at room temperature. The plate was then washed 3-times in wash buffer. An anti-human kappa light chain HRP-conjugated antibody (Sigma A7164, used according to the manufacturer's instructions) was used to detect binding of humanized or chimeric antibodies, such as 10B3 chimera (HcLc) or H0L0. The plate was then washed 3-times in wash buffer and developed with an OPD substrate (according to the manufacturer's instructions) and read at 490 nm on a plate reader.
The protocol set out in 5.7 was used but the plates were initially coated at 4° C. overnight with 0.2 μg/ml of myostatin (recombinant in-house, see 1.1 above). 10B3 (final concentration of 0.3 μg/ml) was added into each well and mixed with antibodies titrated out to a suitable concentration range (approximately 10 to 0.01 μg/ml). An anti-mouse HRP-conjugated antibody (DAKO P0260, used according to the manufacturer's instructions) was used to detect binding of the 10B3 antibody.

First: B1
Second: B2
The “rank among the five most potent, top (1) to bottom (5)” value (from here on “rank among the five most potent, top”) of the first is lower: 2 rank for the first, 5 rank for the second.

Compared with B3, B4 is lower in “rank among the five most potent, top” value: 4 rank for the first, 1 rank for the second.

In the case of B5, the “rank among the five most potent, top” value is reported as 3 rank.

Biological target: T1, recombinant mature dimeric myostatin
Assay: cell-based or functional assay

Compared with B1, B6 is 5.8-fold lower in “IC50, myostatin responsive reporter gene neutralisation assay (A204)” value: 23 nM for the first, 4 nM for the second.

Biological target: T1, recombinant mature dimeric myostatin
Assay: cell-based or functional assay
Remark: another data set of the same source

Compared with B1, B7 is 2.5-fold lower in “Mean IC50, A204 in vitro activity assay” value: 11.1 nM for the first, 4.42 nM for the second.

Biological target: T1, recombinant mature dimeric myostatin
Assay: myostatin competition ELISA, polyclonal Ab capture of myostatin, competitor 10B3
Protocol: as §1
The protocol set out in 5.7 was used with the addition of 10B3 (final concentration of […]) to each well and mixed with the antibodies titrated out to a suitable concentration range (approximately 10 to 0.01 μg/ml). An anti-mouse HRP-conjugated antibody (DAKO P0260, used according to the manufacturer's instructions) was used to detect binding of the 10B3 antibody.

Going from B1 to B3, the “rank among the five most potent, top” value falls from 4 rank to 3 rank.

Compared with B4, B5 is higher in “rank among the five most potent, top” value: 1 rank for the first, 2 rank for the second.

With B8 the “rank among the five most potent, top” value was 5 rank.

Biological target: T1, recombinant mature dimeric myostatin
Assay: cell-based or functional assay
Remark: another data set of the same source

B1 and B2 are within 1.5-fold of each other in “Mean IC50, A204 in vitro activity assay” value: 3.64 nM for the first, 4.53 nM for the second.

B3 and B4 are within 1.5-fold of each other in “Mean IC50, A204 in vitro activity assay” value: 4.22 nM for the first, 4.24 nM for the second.

In the case of B5, the “Mean IC50, A204 in vitro activity assay” value is reported as 5.51 nM.

Biological target: T1, recombinant mature dimeric myostatin
Assay: ActRIIb receptor binding assay: inhibition of biotinylated myostatin binding to coated ActRIIb
Protocol: Recombinant soluble ActRIIb (R&D Systems 339-RBB) was coated in wells of an ELISA plate at 1 μg/ml in carbonate buffer overnight at 4° C. Plates were blocked (see Block solution above at 2.3) and washed following standard ELISA protocols. In parallel, 2 nM biotinylated myostatin (in-house, as described in 1.1, biotinylated material) was pre-incubated with an antibody dilution series consisting of 10B3, 10B3C, and a negative control (IgG1 isotype control) for 2 hours at 37° C. The biotinylated myostatin:antibody reactions were then added to the ActRIIb coated plate for 1 hour at 37° C. Standard wash procedures were followed prior to addition of 1:1000 diluted streptavidin-HRP conjugate (Dako P0397) and a further 37° C. incubation for 1 hour. Plates were again washed and assayed at absorbance 490 nm following OPD substrate (Sigma) and acid stop solution treatment. Inhibition curves and IC50 values for the inhibition of myostatin activity are shown in FIG. 5 and Table 8 respectively.

Going from B9 to B7, the IC50 rises from 0.518 nM to 0.786 nM (1.5-fold).

Biological target: T1, recombinant mature dimeric myostatin
Assay: Kinexa solution phase affinity
Protocol: Kinexa (Sapidyne Instruments) solution phase affinity was used to determine the overall affinity for a range of anti-myostatin molecules. Myostatin beads were prepared either by adsorption (polymethylmethacrylate beads-PMMA) or amine coupling (NHS-activated sepharose beads). The range of anti-myostatin molecules studied necessitated the generation of beads coated with different concentrations of myostatin. For the solution phase portion of the assay, a fixed concentration of antibody was incubated with a broad range of myostatin concentrations and allowed to reach equilibrium by incubation at r.t. for at least 2 h before analysis proceeded. The myostatin beads were then used to determine the amount of free antibody present in the solution phase samples, by means of the free antibody binding to the myostatin bead matrix then detected using an appropriate secondary antibody (either anti-human or anti-mouse depending on the construct being tested) labelled with a fluorescent dye. The binding curves where fitted using the Kinexa Pro analysis software inherent to the machine. Multiple runs using varying starting concentrations of antibody were then compiled and analysed using the n-curve analysis software to give a more accurate determination of affinity.

With B1 the Kd was 3.68 nM.

Biological target: T1, recombinant mature dimeric myostatin
Assay: myostatin competition ELISA, biotinylated myostatin on streptavidin, competitor 10B3
Protocol: The protocol set out in 5.7 was used but the plates were initially coated at 4° C. overnight with 5 μg/ml of streptavidin. Biotinylated myostatin was added at 0.3 μg/ml block buffer during 1 hour followed by 3-times in wash buffer. 10B3 (final concentration of 0.2 μg/ml) was added into each well and mixed with antibodies titrated out to a suitable concentration range (approximately 10 to 0.01 μg/ml). An anti-mouse HRP-conjugated antibody (DAKO P0260, used according to the manufacturer's instructions) was used to detect binding of the 10B3 antibody.

First: B1
Second: B10
The “rank among the five most potent, top” value of the first is lower: 2 rank for the first, 5 rank for the second.

Compared with B2, B3 is lower in “rank among the five most potent, top” value: 3 rank for the first, 1 rank for the second.

B5 was tested, and the “rank among the five most potent, top” value was 4 rank.

Biological target: T1, recombinant mature dimeric myostatin
Assay: ActRIIb neutralisation ELISA: inhibition of 2 nM biotinylated myostatin binding to coated ActRIIb
Protocol: Recombinant soluble ActRIIb (R&D Systems 339-RBB) was coated in wells of an ELISA plate at 1 μg/ml in carbonate buffer overnight at 4° C. Plates were blocked with PBS containing 0.1% tween 20 and 0.1% BSA and washed following standard ELISA protocols. In parallel, 2 nM biotinylated myostatin (in-house reagent, described above) was pre-incubated with a dilution series of the antibodies of Tables 21 and 22 for 30 minutes at 37° C. The biotinylated myostatin:antibody reactions were then added (50 μl/well) to the ActRIIb coated plate for 1 hour at 37° C. Standard wash procedures were followed prior to addition of 50 μl per well of a 1:200 diluted streptavidin-HRP conjugate (R&D Systems. #890803) followed by a further 37° C. incubation for 1 hour. Plates were again washed and assayed at absorbance 490 nm following substrate (R&D Systems, #DY999) and acid stop solution treatment.

Going from B1 to B6, the IC50 falls from 1.25 nM to 0.14 nM (8.9-fold). The second is the more potent here.

Biological target: T1, recombinant mature dimeric myostatin
Assay: myostatin capture ELISA: polyclonal anti-myostatin coated, myostatin 1 ug/ml captured, antibody titrated, anti-human kappa-HRP, OPD, A490
Protocol: The eleven affinity purified CDRH3 variants were also analyzed for binding activity in the myostatin capture ELISA.
as §1

B11: binds.
B12: binds.
B13: binds.
B14: binds.
B15: binds.
